Results on 167 variants are retold here after the RNAGym collection of RNA variant scans (doi:10.7554/elife.90254).

First the molecules themselves.
B1: LINE1-mini (parent)
chain: GGCAGAGCUCAACACAGCGUGGCAAAGUGGCUGUGGCUAGACUGCC

This data set covers variants of B1. Briefly: self-cleavage, relative activity (ratio to wild type); higher = more cleavage; in vitro, sequencing; the parent is a self-cleaving ribozyme.
Turning to G17U G30A, the self-cleavage stood at 0.82.
The value for G17U G30U was 0.16; that for G17U G21U was 0.36; that for G17U G21A was 0.3.
G17U G21C: the self-cleavage turned out to be 1.31.
The figure for G17A G36U is 0.05; for G17A G36A it is 0.1.
The value for G17A G36C was 0.05; that for G17A C45U was 0.25; that for G17A C45G was 0.04.
The value for G17A C45A was 0.13.
Consider G17U C23A, for which the self-cleavage stood at 0.21.
For G17U C23G, the self-cleavage turned out to be 0.1.
The figure for G17U C23U is 0.18; for G17C G29C it is 0.34.
The value for G17C G29A was 0.12.
In the case of G17C G29U, the self-cleavage is 0.32.
In the case of G17C G36C, the self-cleavage came out at 0.04.
Consider G17C G36A, for which the self-cleavage turned out to be 0.09.
For G17C G36U, the self-cleavage was found to be 0.08.
The value for C18A A41G was 0.13; that for C18A A41C was 0.05; that for C18A A41U was 0.34.
Regarding G17A G27U, the self-cleavage came out at 0.31.
Regarding G17A G27C, the self-cleavage came to 0.19.
Take G17A G27A: the self-cleavage was found to be 0.42.
On to G17C C31A, for which the self-cleavage came out at 0.65.
The figure for G17C C31U is 0.16; for G17C C31G it is 0.14.
The figure for C18A C37G is 0.07; for C18A C37A it is 0.05; for C18A C37U it is 0.07.
As to G17A G33A, the self-cleavage worked out at 0.05.
The value for G17A G33U was 0.02; that for G17A G33C was 0.04.
For C18A G30A, the self-cleavage came out at 1.63.
The figure for C18A G30C is 1.99; for C18A G30U it is 1.55.
On to G17U C31A, for which the self-cleavage was 0.88.
As to G17U C31G, the self-cleavage amounted to 1.67.
The value for G17U C31U was 0.11; that for G17C C45U was 0.84.
The value for G17C C45A was 0.16; that for G17C C45G was 0.56; that for G17U U32C was 0.18.
Take G17U U32A: the self-cleavage turned out to be 0.08.
The figure for G17U U32G is 0.09; for G17C G21A it is 1.72.
Consider G17C G21U, for which the self-cleavage amounted to 1.65.
The value for G17C G21C was 0.61.
Take G17U U28A: the self-cleavage is 0.17.
Turning to G17U U28C, the self-cleavage was 1.16.
Take G17U U28G: the self-cleavage turned out to be 0.1.
Consider C18G A25G, for which the self-cleavage came out at 0.13.
The value for C18G A25C was 0.2; that for C18G A25U was 0.51; that for C18A C23U was 1.29.
The figure for C18A C23G is 0.76.
The value for C18A C23A was 1.02.
Take G17U A39C: the self-cleavage was found to be 0.04.
Regarding G17U A39G, the self-cleavage stood at 0.04.
The value for G17U A39U was 0.2; that for C18A G40A was 0.05.
Consider C18A G40C, for which the self-cleavage was determined as 0.03.
On to C18A G40U, for which the self-cleavage amounted to 0.06.
As to G17C C46A, the self-cleavage was 0.64.
The value for G17C C46U was 0.5.
The figure for G17C C46G is 0.54.
G17U U20A: the self-cleavage came out at 0.16.
The value for G17U U20G was 0.12; that for G17U U20C was 0.64; that for C18A A39G was 0.05.
The value for C18A A39C was 0.06; that for C18A A39U was 0.76; that for G17A G44U was 0.03.
Take G17A G44A: the self-cleavage is 0.04.
As for G17A G44C, the self-cleavage was 0.05.
Regarding G17U C37G, the self-cleavage worked out at 0.03.
For the variant G17U C37U, the self-cleavage was 0.05.
With G17U C37A, the self-cleavage came out at 0.1.
The figure for G17U G33U is 0.05.
Turning to G17U G33C, the self-cleavage amounted to 0.02.
Regarding G17U G33A, the self-cleavage was determined as 0.06.
Regarding G17C G19U, the self-cleavage stood at 0.24.
The figure for G17C G19A is 1.14; for G17C G19C it is 1.39; for G17U A26U it is 0.04.
The figure for G17U A26G is 0.1; for G17U A26C it is 0.23.
The figure for G17A U28G is 0.1; for G17A U28C it is 0.97; for G17A U28A it is 0.26.
On to G17C C18U, for which the self-cleavage is 0.08.
In the case of G17C C18A, the self-cleavage is 0.1.
As for G17C C18G, the self-cleavage was 0.07.
On to G17U G19U, for which the self-cleavage amounted to 0.14.
The value for G17U G19A was 0.78; that for G17U G19C was 1.08.
As to G17U G36C, the self-cleavage is 0.09.
The figure for G17U G36A is 0.09; for G17U G36U it is 0.05.
Take C18A U38C: the self-cleavage amounted to 0.09.
Regarding C18A U38A, the self-cleavage was determined as 0.49.
The value for C18A U38G was 0.02; that for G17C G22C was 0.82; that for G17C G22U was 1.51.
For the variant G17C G22A, the self-cleavage is 1.3.
Consider G17C A25C, for which the self-cleavage was determined as 0.51.
The value for G17C A25U was 0.87; that for G17C A25G was 0.18; that for G17A U38C was 0.12.
The figure for G17A U38A is 0.21; for G17A U38G it is 0.04.
As to G17C A24U, the self-cleavage was found to be 0.6.
The figure for G17C A24C is 0.19.
The figure for G17C A24G is 0.71; for G17C G35A it is 0.11.
The figure for G17C G35U is 0.03.
Take G17C G35C: the self-cleavage was found to be 0.04.
The value for G17C A39G was 0.1; that for G17C A39C was 0.11; that for G17C A39U was 0.29.
The value for G17C A41U was 0.49; that for G17C A41C was 0.04; that for G17C A41G was 0.27.
Turning to G17A G22C, the self-cleavage was 0.17.
The value for G17A G22A was 0.32.
The figure for G17A G22U is 0.54.
The figure for G17A G35U is 0.05.
In the case of G17A G35C, the self-cleavage amounted to 0.05.
G17A G35A: the self-cleavage worked out at 0.04.
The value for G17A C37G was 0.05.
For G17A C37A, the self-cleavage was 0.05.
Regarding G17A C37U, the self-cleavage is 0.05.
Take G17U C45G: the self-cleavage worked out at 0.05.
Consider G17U C45U, for which the self-cleavage is 0.18.
As to G17U C45A, the self-cleavage was 0.05.
The figure for G17U A24C is 0.11; for G17U A24G it is 0.09; for G17U A24U it is 0.25.
The value for C18A U43C was 0.05; that for C18A U43G was 0.26.
The value for C18A U43A was 0.08; that for G17A U43G was 0.05.
Turning to G17A U43C, the self-cleavage came to 0.05.
The figure for G17A U43A is 0.08.
The value for G17U C42U was 0.06; that for G17U C42A was 0.05; that for G17U C42G was 0.06.
Regarding C18A G33C, the self-cleavage was 0.04.
Turning to C18A G33A, the self-cleavage was 0.03.
In the case of C18A G33U, the self-cleavage came to 0.04.
The figure for G17C A26C is 1.18; for G17C A26U it is 1.41; for G17C A26G it is 0.07.
For C18A G27A, the self-cleavage turned out to be 1.47.
The value for C18A G27C was 0.62.
The figure for C18A G27U is 1.04; for G17C G30U it is 0.05.
The value for G17C G30A was 0.94; that for G17C G30C was 0.25; that for G17C G27A was 1.06.
For the variant G17C G27C, the self-cleavage came to 0.29.
The figure for G17C G27U is 1.06; for G17U A41C it is 0.1.
For the variant G17U A41U, the self-cleavage was found to be 0.09.
The figure for G17U A41G is 0.08.
